Assay: soluble on expression in E. coli; label from the status in PepcDB or PDB records
With “MGSDKIHHHHHHVDGTSKQVIKRDKMITQAISQLTPQNKLLVEEINKNVQDTILERLNMNIAGRWNDSSLSLTLMKSTIKFVPVIDSPSRLYLVNDSEKVFRIPEKFACFYGQNDNGETIYFYAIYHAENFMKDTNPKSYYQGYVEVFGKEAADKMVESSIKRTEAERWEIMSFTPQKNETKKFEYAREHSDDGTFFILTRENTYPHICFFKDKKPYYCWGANQDELSMEPLENYLKP” the “soluble on expression in E. coli” value was “not soluble”. For “MAEAVITLTEAAAFQIKDMMKEQEEEGAYLRVGVHGGGCSGLSYGMGFDHERRDDDIEFEQHGIKILVDRDSAPILRGTVIDYKQSLLGGGFTINNPNAIATCGCGSSFRTATNAGTPEQC”, the “soluble on expression in E. coli” value was “soluble”. With “MHHHHHHSSGVDLGTENLYFQSMKLIRVENFEAYFKKQQADSNCGFAEEYEDLKLVGISQPKYAAELAENRGKNRYNNVLPYDISRVKLSVQTHSTDDYINANYMPGYHSKKDFIATQGPLPNTLKDFWRMVWEKNVYAIIMLTKCVEQGRTKCEEYWPSKQAQDYGDITVAMTSEIVLPEWTIRDFTVKNIQTSESHPLRQFHFTSAPDHGVPDTTDLLINFRYLVRDYMKQSPPESPILVHCSAGVGRTGTFIAIDRLIYQIENENTVDVYGIVYDLRMHRPLMVQTEDQYVFLNQCVLDIVRSQKDSKVDLIY” the “soluble on expression in E. coli” value was “soluble”. In the case of “GMDNWQDITDDRLVRPIHPGEVIADILDDLDINTANFAEILGVSNQTIQEVINGQRSITVDIAIRLGKALGNGPRLWLNLQQKVDLWYALQSHKEEYEQVMTLV”, the “soluble on expression in E. coli” value was “soluble”. With “MLTPERHQMILQLVKEQKVVKLQQLVERTESSESTIRRDLAQLEKQRLLKRVHGGAAVLTGKGQEPTMVEKSSKNIQIKQQIAKYAASVIEQGDCIYLDAGSTTFEMIPFLINKDVTVVTNGLMHIEALVENNIRAYLLGGMMKSRTKALIGAMAQESMQKYRFDKCFLGANGVHEQLGFTTPDPEEALLKQMALTLANEGYFLIDESKFSEVAFAKIANVEDANIITNHLEIDLEKYKQQTNVIEADKQLEHHHHHH” the “soluble on expression in E. coli” value was “soluble”. In the case of “MSLNNLNTNIDFIKKSPKTELHLHIEGSLEPELMFKLSKRNKIEIPFKSVDEIRSAYNFTNLDSFLKIYYEGSNVLIREEDFFDLTWEYVLRCKQDNIVHTEIFFDPQSHLPRGISFETVINGIDKALKKAEKDFGISSKIIMCFLRHLDEESCFDVLKKAFDHKDKIIGVGLDSSEKGNPPSKFKRLFEQAVKEGFITVAHAGEEGPPEYIWDSLDILKVKRIDHGVQCLNDEKLVNKLVKEQIPLTVCPLSNVKLCVFDKLENHNLKKMLDKGLRVMVNSDDPAYFGGYLNKNLIETSRALNLNLVDIKKLIENSFKSSFLEKEKKENWLKKINEGHHHHHH”, the “soluble on expression in E. coli” value was “soluble”. For “MGSDKIHHHHHHQNQPLRITIDEGIIEPLPYAAPNFVPDSPAAAEYAAEIARVLAADLTGSGLFREIPSTAYISQVTSFDAPVQFADWKAINAQALITGAVSVSGNRLTVRFRLWDVFAGAELGSGLQFAGTTDGWRRMSHKVADAVYSRITGESGYFDSRVAFVSESGPKDQRRKRLAIMDYDGANVQYLTDSSSIVLAPRFSPTGDRVLYTSYQGGFPRIHILDVGQVQQRVLQSQDGTMSFAPRFSPDGQTVLFSLAQGGNTDLYAMNIASGQSTRLTSAPSIETAPSYAPDGSRIVFESDRSGTPQLYVMSAAGGEATRISFGQGRYGTPVWSPRGDLIAFTKQSKGRFHIGVMRADGSEERLLTASFLDEGPTWSPNGRVIMFTRETQGASGRAALYSVDISGRNLRPVRTPDGGSDPSWSPLQK”, the “soluble on expression in E. coli” value was “not soluble”. In the case of “MGHHHHHHSHMSTKVPIYLKRGSRKGKKEKLRDLLSSDMISPPLGDFRHTIHIGSGGGSDMFGDISFLQGKFHLLPGTMVEGPEEDGTFDLPFQFTRTATVVGRELPDGPSPLLKNAISLPVIGGPQALTLPTAQAPPKPPRLHLETPQPSPQEGGSVDIWRIPETGSPNSGLTPESGAEEPFLSNASSLLSLHVDLGPSILDDVLQIMDQDLDSMQIPT”, the “soluble on expression in E. coli” value was “not soluble”. For “MIPKIIHYVWVGHNPKSKLIQECIATWKEKLPDYQFIEWNEDNFDMHENKYIEQAYKAKKWAFVSDYIRAKAIYEQGGIYLDTDVRVIASLTPLLDNKAFIGFENNNYLSAAIFGAEKGHPFMQDILDYYKDRNFEYDVNNQMAGVNSVSVTDMLIDRYGLKIGNKEQELKEGIHVYPDGVLCNPSVNSLSIHLFTGTWMNGKHSFKHKLVTFLKRHINTPKEAGLYAKWIRLEHHHHHH”, the “soluble on expression in E. coli” value was “soluble”. For “MGSDKIHHHHHHMRSITTNYSDDGYNFAFLDEQTKRMVRRTLLKALSIPGYQVPFGGREMPLASGWGTGGIQITASVLGPNDRLKVIDQGADDTTNAVSIRRFFQTVADISVTESTEEATIIQTRHRVPEAPLTEGQILVYQVPEPEPLRKLIPRESETRKMHAYAEYGAMQVTLYENIARFGRIAKTYDYPAMINGRFLMSPSPIPKFDNPKMANNPAIQFWGAGREKRIYAVPPYTSVRSLDFDDHPFEVQTWQGCCALCGSTVSYLDEVITDDKGSRMFVCSDTDFCNTRQAQAAAQPNSAGGES”, the “soluble on expression in E. coli” value was “not soluble”. For “MGSDKIHHHHHHMKILITGANGQLGREIQKQLKGKNVEVIPTDVQDLDITNVLAVNKFFNEKKPNVVINCAAHTAVDKCEEQYDLAYKINAIGPKNLAAAAYSVGAEIVQISTDYVFDGEAKEPITEFDEVNPQSAYGKTKLEGENFVKALNPKYYIVRTAWLYGDGNNFVKTMINLGKTHDELKVVHDQVGTPTSTVDLARVVLKVIDEKNYGTFHCTCKGICSWYDFAVEIFRLTGIDVKVTPCTTEEFPRPAKRPKYSVLRNYMLELTTGDITREWKESLKEYIDLLQM”, the “soluble on expression in E. coli” value was “soluble”. With “MAKRLSKQQLAKAIANTLETPPQPKAGRRRNRRRQRSAVQQLQPTQAGISMAASAQGAMVRIRNPAVSSSRGGITVLTHSELSAEIGVTDSIVVSSELVMPYTVGTWLRGVAANWSKYSWLSVRYTYIPSCPSSTAGSIHMGFQYDMADTVPVSVNQLSNLRGYVSGQVWSGSAGLCFINGTRCSDTSTAISTTLDVSKLGKKWYPYKTSADYATAVGVDVNIATPLVPARLVIALLDGSSSTAVAAGRIYCTYTIQMIEPTASALNN” the “soluble on expression in E. coli” value was “soluble”. For “MSKDDPINSIFFEHQEAALCAQHALNMLLQDALYKWQDLRDLAIQMDKMEQQILGNANPTPGRSENMNESGYFSIQVLEKALETFSLKLTNIENPAMVDYKNNPLTARAYICNLREHWFVLRKFGNQWFELNSVNRGPKLLSDTYVSMFLHQVSSEGYSIFVVQGVLPRSDADDLISLCPVVPPKVTPKKEQKLEKVMTKFFNTVGKRLGGGSGAPPDSQEEKDLAIAFAMSMETKDGSEVSRSSAEIDEENLRKAIELSQAPGPSEPAEIPLLTRSRSSTPPGASEPFSNAEQQRRDRQKFLERFEKKKEERNDEK”, the “soluble on expression in E. coli” value was “not soluble”. With “MGSDKIHHHHHHMKITFPNLGNTLYAAKALFDNLEIEYVLPPNSSKKCLEIGSLYSPEDICLPFKIMIGAYIDSIERGADTILITGSCGPCRFGEYCELQINLLKKLGHDVDFIVLDRPSSIGKTEFLNRLSKISGSSSISSYKKLKAVYSAYKIINLIDYIEKTARYKAGFELKKGECKKILQTCKKSALTCNNAESMIDLLTKYKHMINHVPIDSTKTPLKVSIIGEIYTILEPFSNLYIENKLMDLGISTQKNITPSWWFKDAMLSNLNLNSINLRMNSKKYLPYYIGGHGRECVGEAVMASNSGFDGAIQLFPMGCMPEIVSKSILPTISRDKDFPILSLIIDEMTGDAGYMTRIEAFIDLLERRKNRCII” the “soluble on expression in E. coli” value was “not soluble”. With “MGSDKIHHHHHHMEPVYFTSPTRGRLTEDEMFADMMQFVDANPEAQYKIIIGSDSQARVRTCFVTAVIVHQVGRGARYYYRKKYQRKITSLRQKIFYETALSLETASFIAQRLAANGHADLNVEIHLDIGPNGETRDLIREIVGMVVGSGFAAKIKPYSCGASKVADKYTKSG” the “soluble on expression in E. coli” value was “not soluble”. With “MGSDKIHHHHHHMNKEHICFDFDSNPAFQTIDYEVAARSFVPGYESIFNMAVALLDASVPEPAHLLIVAAGGGMELITFGQARSHWLFTGVDPSAKMLAIAQEKVAKQGLTNRVKLHQGLTHELPVTTLYDAATCILAMHFLPDDGAKLLLLQSISQRLKPGAKLILVDLCEEKGSERFNDFLKAYKYHARNLGMSPEIVEETASKVVHIHCISEERTIELLQEANFSKITRFFTALWFRGWIATKNT” the “soluble on expression in E. coli” value was “not soluble”. For “MGSDKIHHHHHHRVAQCCAIIDRSKIVIGFSDHGLYCIEISRQLLIPVGGEKENKQRCVETVEYDEAEQLLMMIVGPAKDRHVRIVPSAALDGRDLKWIKVNDTKGCHLLAVGTNNPGGRAGFFAVAFKKSVTIFQIDRSEKRHKKWKDLAMPGTPQSIAIFNGRLYVGFSHSFRSWSLVGVDSSPVGSGDASGAVLQHISLVNMEDTSLQFLNQQTSYEAKLIVNVPGSPDEYLLVFNMIGLYVNEMGRRSRLPEVMFPTQAKYFAYHEPYLCVFSENEVDIFNVTLAEWVQTINLRSAKPLSGDGILSTCLCNDSPIFVLLQN”, the “soluble on expression in E. coli” value was “not soluble”. With “MDAVDRGVYFDEDFHVRILDVDKYNASKSLQDNTNVFINNIQNMQGLVDKYVSAIDQQVERLEAEKLKAIGLRNRVAALSEERKRKQKEQERMLAEKQEELERLQMEEQSLIKVKGEQELMIQKLSDSSSGAAYV” the “soluble on expression in E. coli” value was “not soluble”. In the case of “MGSDKIHHHHHHMPDNANIAASHTQAHGSSYDDKPTQPQCDSIKLNEIGPNLLEPRAIEPSATKPNAIKHESVITKQKQKVIFIGLPRTGTTSVSVALLEQGLKVAHMAFTKEAFMQADAISDAPCFSDFKQLDELFPKAKFVYLDRELDSWVPSMQMLLSRMLPHLDAKIGRFHPIMKRSFRHTFGVGVVENPQDEQHLIDCYQHHKTEVFNYFAGRQDLLSIDVSQQGALGQLLAFMELTSAENHNLSFPKLNVGRNVASWDEYKHPNKISANAAGPEKRKYFDYKV”, the “soluble on expression in E. coli” value was “not soluble”. For “MGSDKIHHHHHHMKQGSLFENSQRNTPLASRVRPQTLDQFVGQAHLLGPGKILRELIENDQVSSMIFWGPPGVGKTTLAEIIARQTQATFLSFSAVDSSISKIKKIMHQAEADREIGEQTIVFVDEIHRFNKAQQDAFLPYVERGSIILIGATTENPSFEVNSALLSRCKVFVLKALATADIDQLLRNALTNPAGFSGRVTIGDAELRAIAEFANGDARMALNTLEMAVLNGDKQGDQVTVTQADLKQLITQKFVLYDKTGEEHYNIISALHKSMRNSDPDAAIYWLTRMLSGGEDPLYVARRLVRFASEDIGLADTNALNVAINVFQACQFLGMPECNVHLVEAVTYLSLAPKSNAIYKASQAAQKDVQQTRDEPVPLQLRNAPTKLMKDLGYGADYQYAHESAAKLTTMQTLPEALRGHVYYEPTEQGREGRFKARLAEIKRWQQQHRD”, the “soluble on expression in E. coli” value was “not soluble”. With “TPGFSLGFIVNMRLHDHFDLRLLPTVGFYSRSIQYDFIKTSEIQTIESTFVEFPLLLKYKSQRRNNSRLYVTGGFKASIEAGAKKKQRKSTDLRTNGFDLCLDMGVGMDIYCPLFKFSPEIRYSHGLLNLLNNDPNVYSSSLSRLSSNTISLFFNFE” the “soluble on expression in E. coli” value was “not soluble”. For “MQLVREKEFVNQYHYDARNLEWEKENGTPETNFEVTFQLIDKDEQQKETVIVSVLQFVIVKEEFVISGVISQMVRILDRLVDKPSEFTQEEVESLAAPLLDMVKRLTYEVTEIALDRPGIHLEFKN”, the “soluble on expression in E. coli” value was “not soluble”. For “TQDMELNVNVNVTFQQNKLLSLSGMYGGENISAPEYKSLASLDGAGFHGGYNHIVYQMVGQPLGVFYLPHCKGLIADGNGGYTYDIADLNGGGVSLEDGEDRYVAGQAVPKTLLGSNISFRYKRFDLSVQVNGAFGHKIYNGTSLTYMNMNIFPDYNVMKKAPGRNIKDQTATDYWLEKGDYINFDYVTVGWNVPVAKWKKYVQSFRLAFTVNNLATITGYSGLSPMINSSTVNSTLGVDDKRAYPLARTYTLGLSINF”, the “soluble on expression in E. coli” value was “not soluble”.

Source: the DeepSol protein solubility set
